In PMC11565947 (bioRxiv, 2024):

T1: prefusion-stabilized hMPV F protein (hMPV prefusion F trimer) (human metapneumovirus; subgroup/strain …, stabilised)
T1 chain 1: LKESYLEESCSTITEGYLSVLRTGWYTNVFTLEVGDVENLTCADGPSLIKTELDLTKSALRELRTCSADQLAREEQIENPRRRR
T1 chain 2: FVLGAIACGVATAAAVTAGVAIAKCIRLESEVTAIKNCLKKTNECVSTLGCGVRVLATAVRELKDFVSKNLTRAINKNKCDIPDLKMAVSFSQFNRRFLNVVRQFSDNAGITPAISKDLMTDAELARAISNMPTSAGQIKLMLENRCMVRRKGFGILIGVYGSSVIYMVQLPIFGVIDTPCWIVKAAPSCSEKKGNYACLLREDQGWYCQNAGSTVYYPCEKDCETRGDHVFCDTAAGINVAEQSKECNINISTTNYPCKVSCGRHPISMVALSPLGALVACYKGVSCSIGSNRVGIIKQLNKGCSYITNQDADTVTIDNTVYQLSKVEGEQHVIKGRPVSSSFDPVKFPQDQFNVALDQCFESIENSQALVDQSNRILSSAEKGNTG

T2: prefusion-stabilized hMPV F construct hMPV F-DS-CavEs2-IPDS (human metapneumovirus, N-linked glycans (Asn172, Asn57))
T2 chain: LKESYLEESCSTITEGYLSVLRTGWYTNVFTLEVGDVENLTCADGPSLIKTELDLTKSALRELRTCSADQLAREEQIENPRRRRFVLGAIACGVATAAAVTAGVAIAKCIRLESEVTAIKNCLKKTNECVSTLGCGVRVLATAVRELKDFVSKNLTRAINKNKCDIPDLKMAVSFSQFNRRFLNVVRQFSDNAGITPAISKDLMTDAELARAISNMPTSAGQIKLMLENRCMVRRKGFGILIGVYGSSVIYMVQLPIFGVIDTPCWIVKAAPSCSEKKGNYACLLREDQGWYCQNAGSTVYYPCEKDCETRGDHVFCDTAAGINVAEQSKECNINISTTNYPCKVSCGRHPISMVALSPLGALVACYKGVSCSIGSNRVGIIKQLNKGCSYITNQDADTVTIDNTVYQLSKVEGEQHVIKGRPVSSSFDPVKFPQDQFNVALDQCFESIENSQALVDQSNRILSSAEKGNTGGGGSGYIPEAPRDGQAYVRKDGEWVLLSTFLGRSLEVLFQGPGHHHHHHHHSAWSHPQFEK


Columns and labels:
[1] = biological target: prefusion-stabilized RSV F protein (RSV prefusion F trimer) (human respiratory syncytial virus A, …, UniProt P03420, stabilised); test: ELISA
[2] = biological target: T1, prefusion-stabilized hMPV F protein …; test: cell-based or functional assay
[3] = biological target: T2, prefusion-stabilized hMPV F construct …; test: cryo-EM structure

Binder | binding result [1] | PRNT neutralisation of hMPV 97–83 and hMPV TN/93–32, IC50 [2] | stoichiometry N [3]
monoclonal antibody 5–1 (recombinant human IgG1) (antibody, V domains shown) VH: QGQLVQSGPEVKKPGATVKVSCRASAYPFGNYGITWVRQVPGQGLEWVGWISAYTGHTKFPQNFQGRVTLTADTSTSTGYMELRSLTSDDTAVYYCARGPCCSSPRPYDIWGQGTMVTVSS VL: DIQMTQSPSTLSASVGDRVTITCRASQSIDDWLAWYQHSPGKAPKLLIYRASRLESGVPSRFSGSGSGTEFTLTISSLQPDDFASYYCQQCYTYSQTFGQGTRVEIK | binds | < 10 ng/mL | 
5–1 antigen-binding fragment (Fab) (Fab, V domains shown) VH: QGQLVQSGPEVKKPGATVKVSCRASAYPFGNYGITWVRQVPGQGLEWVGWISAYTGHTKFPQNFQGRVTLTADTSTSTGYMELRSLTSDDTAVYYCARGPCCSSPRPYDIWGQGTMVTVSS VL: DIQMTQSPSTLSASVGDRVTITCRASQSIDDWLAWYQHSPGKAPKLLIYRASRLESGVPSRFSGSGSGTEFTLTISSLQPDDFASYYCQQCYTYSQTFGQGTRVEIK |  |  | 3 Fabs per trimer
